Measured values as given in paper doi:10.1101/2025.08.26.672026 (bioRxiv, 2025).

Molecular target: the molecule itself
Assay: negative stain EM

B1: RPS2^ΔN26 (domain or fragment, Arabidopsis thaliana, UniProt Q42484 27-909, looked up)
chain: HKTDLRQAITDLETAIGDLKAIRDDLTLRIQQDGLEGRSCSNRAREWLSAVQVTETKTALLLVRFRRREQRTRMRRRYLSCFGCADYKLCKKVSAILKSIGELRERSEAIKTDGGSIQVTCREIPIKSVVGNTTMMEQVLEFLSEEEERGIIGVYGPGGVGKTTLMQSINNELITKGHQYDVLIWVQMSREFGECTIQQAVGARLGLSWDEKETGENRALKIYRALRQKRFLLLLDDVWEEIDLEKTGVPRPDRENKCKVMFTTRSIALCNNMGAEYKLRVEFLEKKHAWELFCSKVWRKDLLESSSIRRLAEIIVSKCGGLPLALITLGGAMAHRETEEEWIHASEVLTRFPAEMKGMNYVFALLKFSYDNLESDLLRSCFLYCALFPEEHSIEIEQLVEYWVGEGFLTSSHGVNTIYKGYFLIGDLKAACLLETGDEKTQVKMHNVVRSFALWMASEQGTYKELILVEPSMGHTEAPKAENWRQALVISLLDNRIQTLPEKLICPKLTTLMLQQNSSLKKIPTGFFMHMPVLRVLDLSFTSITEIPLSIKYLVELYHLSMSGTKISVLPQELGNLRKLKHLDLQRTQFLQTIPRDAICWLSKLEVLNLYYSYAGWELQSFGEDEAEELGFADLEYLENLTTLGITVLSLETLKTLFEFGALHKHIQHLHVEECNELLYFNLPSLTNHGRNLRRLSIKSCHDLEYLVTPADFENDWLPSLEVLTLHSLHNLTRVWGNSVSQDCLRNIRCINISHCNKLKNVSWVQKLPKLEVIELFDCREIEELISEHESPSVEDPTLFPSLKTLRTRDLPELNSILPSRFSFQKVETLVITNCPRVKKLPFQERRTQMNLPTVYCEEKWWKALEKDQPNEELCYLPRFVPN
Q: With B1 as the protein, how does the “stoichiometry N” value read?
A: Its value is 8.
